{"source": "patent US20140037642A1", "about": "(Amgen, published 2014)", "binders": {"B1": {"name": "L38H38 phage-displayed Fab (Fab, V domains shown)", "VH": "EVQLVESGPGLVKPSETLSLTCAVSGGSISSSNWWSWVRQPPGKGLEWIGEIYHSGSTNYNPSLKSRVTISVDKSKNQFSLKLSSVTAADTAVYYCARSTWSLDYWGQGTLVTVSS", "VL": "not shown"}, "B2": {"name": "L27H27 phage-displayed Fab (Fab, V domains shown)", "VH": "EVQLVQSGGGVVQPGTSLRLSCAASGFSFRSHGMHWVRQAPGKGLEWVAVISYDGSNKYYADSVKGRFTISRDNSKNTLYLQMNSLRAEDTAVYYCATIGPGGFDYWGQGTLVTVSS", "VL": "not shown"}, "B3": {"name": "L28H28 phage-displayed Fab (Fab, V domains shown)", "VH": "QVQLQESGPGLVKPSETLSLTCTVSGGSIRNYYWSWIRQPPGKGLEWIGYISDSGNTNYNPSLKSRVTISVDTSKNQFSLKLTSVTATDTAAYFCARHRSSWAWYFDLWGRGTLVTVSS", "VL": "SYVLTQPPSVSVSPGQTASITCSGDKLGDKYVGWYQQKAGQAPVLVIYQDNKRPSGIPERFSGSNSGNTASLTISGTQAMDEADYYCQAWDSGTVFGGGTKLTVL"}, "B4": {"name": "L40H40 phage-displayed Fab (Fab, V domains shown)", "VH": "QVQLVQSGAEVKKPGSSVKVSCKASGGTFSSYAISWVRQAPGQGLEWMGRIIPILGIANYAQKFQGRVTITADKSTSTAYMELSSLRSEDTAVYYCAYGSGSYYDYYYMDVWGKGTTVTVSS", "VL": "ETTLTQSPATLSLSPGQRATLSCRASQSVYNYLAWYQQKPGQAPRLLIYDASRRATGIPARFSGSGSGTDFTLTISSLEPEDFAVYYCQQRNNWPLTFGGGTKVEIK"}, "B5": {"name": "L25H25 phage-displayed Fab (Fab, V domains shown)", "VH": "QVQLQESGPGLVKPSGTLSLTCAVSGGSISSSNWWSWVRQPPGKGLEWIGEIYHSGSTNYNPSLKSRVTISVDKSKNQFSLKLSSVTAADTAVYYCASSGYDAFDIWGQGTTVTVSS", "VL": "not shown"}, "B6": {"name": "L32H32 phage-displayed Fab (Fab, V domains shown)", "VH": "B5 VH with S98R, S99A, G100S, Y101V, T112M", "VL": "not shown"}, "B7": {"name": "L49H49 phage-displayed Fab (Fab, V domains shown)", "VH": "QVQLQQWGAGLLKPSETLSLTCAVYGGSFSGYYWSWIRQPPGKGLEWIGEINHSGSTNYNPSLKSRVTISVDTSKNQFSLKLSSVTAADTAVYYCARVGYSHGEEVLDVWGKGTTVTVSS", "VL": "NFMLTQPHSVSESPGKTVSISCTRNSGSIASNFVQWYQQRPGSAPTIVIYEDNQRPSAVPTRFSGSIDRSSNSASLTISGLTTEDEADYYCQSYDSANVIFGGGTKLTVL"}, "B8": {"name": "L29H29 phage-displayed Fab (Fab, V domains shown)", "VH": "QVQLQESGPGLVKPSETLSLTCAVSGGSISSSNWWSWVRQPPGKGLEWIGEIYHSGSTNYNPSLKSRVTISVDKSKNQFSLKLSSVTAADTAVYYCARVGSGWYVDYWGQGTLVTVSS", "VL": "not shown"}, "B9": {"name": "L7H7 phage-displayed Fab (Fab, V domains shown)", "VH": "B8 VH with E16G, V99F, G100W, S101D, G102Y, W103Y, Y104G, V105M, Y107V, L113T", "VL": "not shown"}, "B10": {"name": "L10H10 phage-displayed Fab (Fab, V domains shown)", "VH": "EVQLVESGPGLVKPSGTLSLTCAVSGGSISSSNWWSWVRQPPGKGLEWIGEIYHSGSTNYNPSLKSRVTISVDKSKNQFSLKLSSVTAADTAVYYCARDYDIFGMDVWGQGTTVTVSS", "VL": "not shown"}, "B11": {"name": "L6H6 phage-displayed Fab (Fab, V domains shown)", "VH": "B8 VH with E16G, V99D, S101Q, G102L, W103D, Y104A, V105F, Y107I, L113M", "VL": "not shown"}, "B12": {"name": "L39H39 phage-displayed Fab (Fab, V domains shown)", "VH": "B10 VH with D99L, Y100S, D101F, I102A, F103D, G104P, M105F, V107I, T113M", "VL": "not shown"}, "B13": {"name": "L3H3 phage-displayed Fab (Fab, V domains shown)", "VH": "B8 VH with E16G, R98K, V99N, G100L, S101A, G102A, W103G, Y104A, D106A", "VL": "not shown"}, "B14": {"name": "L31H31 phage-displayed Fab (Fab, V domains shown)", "VH": "EVQLVQSGGGVVQPGRSLRLSCAASGFTFSSYGMHWVRQAPGKGLEWVAVISYDGSNKYYADSVKGRFTISRDNSKNTLYLQMNSLRAEDTAVYYCAKAYSSGWYDYYGMDVWGQGTTVTVSS", "VL": "DIQLTQSPSSLSASVGDRVTITCRSSQGIGYFLNWYQQEPGKAPKILISAASTLQSGVPSRFSGSGSGTDFTLSINNLQPADFATYYCQQSHSPPYTFGQGTKVEIK"}, "B15": {"name": "L36H36 phage-displayed Fab (Fab, V domains shown)", "VH": "QVQLQQWGAGLLKPSETLSLTCAVYGGSFSGYYWSWIRQPPGKGLEWIGEINHSGSTNYNPSLKSRVTISVDTSKNQFSLKLSSVTAADTAVYYCARVGYSSGRDVDYWGQGTLVTVSS", "VL": "NFMLTQPHSVSESPGKTVTISCTRSSGSIASNYVQWYQQRPGSSPTTVIYEDNQRPSGVPDRFSGSIDSSSNSASLTISGLKTEDEADYYCQSYDSSNVVFGGGTKLTVL"}, "B16": {"name": "L14H14 phage-displayed Fab (Fab, V domains shown)", "VH": "QVQLQESGPGLVKPSGTLSLTCAVSGGSISSSNWWSWVRQPPGKGLEWIGEIYHSGSTNYNPSLKSRVTISVDKSKNQFSLKLSSVTAADTAVYYCARGLGDSSGYILWGQGTMVTVSS", "VL": "not shown"}, "B17": {"name": "L15H15 phage-displayed Fab (Fab, V domains shown)", "VH": "B16 VH", "VL": "DVVMTQSPLSLPVTPGEPASISCRSSQSLLHSNGYNYLDWYLQKPGQSPQLLIYLGSYRASGVPDRFSASGSGTDFTLKISRVEAEDVGVYYCMQALQTPITFGQGTRLEIK"}, "B18": {"name": "L33H33 phage-displayed Fab (Fab, V domains shown)", "VH": "B16 VH", "VL": "EIVLTQSPLSLPVTPGEPASISCRSSQSLLHSNGYNYLDWYLQKPGQSPQLLMYLVSNRASGVPERFSGSGSGTDFTLKISRVEAEDVGVYYCMQTLQTPLSFGQGTKLEIK"}, "B19": {"name": "L30H30 phage-displayed Fab (Fab, V domains shown)", "VH": "QVQLQESGPGLVKPSGTLSLTCAVSGGSISSSNWWSWVRQPPGKGLEWIGEIYHSGSTNYNPSLKSRVTISVDKSKNQFSLKLSSVTAADTAVYYCARVSGYYYYGMDVWGQGTTVTVSS", "VL": "not shown"}, "B20": {"name": "L37H37 phage-displayed Fab (Fab, V domains shown)", "VH": "B19 VH with Q1E, Q5V, V38I, V99D, G101S, Y102S, Y103W", "VL": "not shown"}, "B21": {"name": "L34H34 phage-displayed Fab (Fab, V domains shown)", "VH": "QVQLQQSGPGLVKPSGTLSLTCAVSGGSISSSNWWSWVRQPPGKGLEWIGEIYHSGSTNYNPSLKSRVTISVDKSKNQFSLKLSSVTPEDTAVYYCARDHGPFDYWGRGTLVTVSS", "VL": "not shown"}, "B22": {"name": "L50H50 phage-displayed Fab (Fab, V domains shown)", "VH": "QVQLQESGPGLVKPSETLSLTCTVSGGSIGNYDWSWIRQPPGKGLEWIGTIYSSGSTYYSPSLKSRLTISVDKSKNRFSLKLSSVTAADTAVYYCARARGYSSPFDPWGQGTLVTVSS", "VL": "ETTLTQSPGTLSLSPGERATLSCRASQTISSSHLAWYQQKPGQSPRLLIYGAGYRATGIPDRFSGSGSGTDFTLTISRLEPEDFAVYYCQHYGSSLRTFGQGTKVEIK"}}, "note": "Numbering of substitutions follows the chain as printed."}
{"molecular_target": "T1, hu IGF-1R(ECD)-C3-muIgG1Fc (human; mouse, Glycosylated. 60% of the preparation was cleaved between the alpha and beta chains (RKRR, mature positions 708-711), which stay disulfide-linked; 40% was unprocessed. Dimer through the …)", "T1 construct": "60% of the product was processed into α and β chains, 40% unprocessed; also called IGF-1R(ECD)-C3-muFc; IGF-1R-C3-muFc", "test": "phage Fab ELISA, plate coated with IGF-1R-C3-mFc at 5 µg/ml", "procedure": "(§1) In 96-well 2-ml deep-well blocks, 480 μl/well 2xYT-CG broth was inoculated with 20 μl of overnight cultures of the individual clones, then incubated at 37° C., 300 rpm for 3 hours. To each well, 50 μl of 1:3 diluted M13KO7 helper phage were added to infect the cells. The block was incubated at 37° C. without shaking for 30 minutes, and then shaken gently for another 30 minutes at 150 rpm. The block was centrifuged at 3600 rpm for 20 minutes to pellet the infected cells. The cell pellet in each well was suspended into 480 μl of 2xYT-CK (2xYT broth containing 100 μg/ml carbenicillin and 40 μg/ml kanamycin), and incubated at 30° C. overnight for about 20 hours. The cell debris was separated by centrifugation at 3600 rpm for 20 minutes. The rescued phage supernatant was used in the phage ELISA to check for IGF-1R-specific, INSR-cross reactive, or mouse Fc binding of individual clones.\n(§2) The coated plates were washed 3× with 300 μl/well of PBS. The washed plates were blocked with 300 μl/well 2% MPBS at room temperature for one hour. Meanwhile, rescued phages of individual clones were pre-blocked by mixing 170 μl of rescued phage with 170 μl of 4% MPBS. The blocked plates were washed 5× with 300 μl/well TBST (TBS: 10 mM Tris-HCl, pH 7.5, 1 mM EDTA, 150 mM NaCl; Tween-20. 0.1%). 100 μl/well of pre-blocked phage dilutions were distributed to each set of coated plate, which were incubated at room temperature on a rocker for 90 minutes. The plates were washed 5× with 300 μl/well TBST. 100 μl/well of anti-M13-HRP in 2% MPBS (1:3000 dilution, catalog number 27-9421-01, Amersham Pharmacia Biotech) were distributed, and plates were incubated at room temperature on rocker for one hour. The plates were washed 5× with 300 μl/well TBST. 100 μl/well of the substrate 1-Step™ ABTS (Pierce Biotechnology, Rockford, Ill., catalog number 37615) were added. Plates were incubated for one hour. OD₄₀₅ was measured for signal detection."}
{"binder": "B1", "binding result": "binds"}
{"binder": "B2", "binding result": "binds"}
{"binder": "B3", "binding result": "binds"}
{"binder": "B4", "binding result": "binds"}
{"binder": "B5", "binding result": "binds"}
{"binder": "B6", "binding result": "binds"}
{"binder": "B7", "binding result": "binds"}
{"binder": "B8", "binding result": "binds"}
{"binder": "B9", "binding result": "binds"}
{"binder": "B10", "binding result": "binds"}
{"binder": "B11", "binding result": "binds"}
{"binder": "B12", "binding result": "binds"}
{"binder": "B13", "binding result": "binds"}
{"binder": "B14", "binding result": "binds"}
{"binder": "B15", "binding result": "binds"}
{"binder": "B16", "binding result": "binds"}
{"binder": "B17", "binding result": "binds"}
{"binder": "B18", "binding result": "binds"}
{"binder": "B19", "binding result": "binds"}
{"binder": "B20", "binding result": "binds"}
{"binder": "B21", "binding result": "binds"}
{"binder": "B22", "binding result": "binds"}
{"molecular_target": "T2, hu INSR(ECD)-muIgG1Fc (human; mouse, Glycosylated. 87% of the preparation was cleaved between the alpha and beta chains (RKRR site), which stay disulfide-linked. Dimer through the receptor and the murine Fc.)", "T2 construct": "87% processed into α and β chains; also called INSR(ECD)-muFc; INSR-mFc", "test": "phage Fab ELISA, plate coated with INSR-mFc at 5 µg/ml", "procedure": "as §1, §2"}
{"binder": "B1", "binding result": "no binding"}
{"binder": "B2", "binding result": "no binding"}
{"binder": "B3", "binding result": "no binding"}
{"binder": "B4", "binding result": "no binding"}
{"binder": "B5", "binding result": "no binding"}
{"binder": "B6", "binding result": "no binding"}
{"binder": "B7", "binding result": "no binding"}
{"binder": "B8", "binding result": "no binding"}
{"binder": "B9", "binding result": "no binding"}
{"binder": "B10", "binding result": "no binding"}
{"binder": "B11", "binding result": "no binding"}
{"binder": "B12", "binding result": "no binding"}
{"binder": "B13", "binding result": "no binding"}
{"binder": "B14", "binding result": "no binding"}
{"binder": "B15", "binding result": "no binding"}
{"binder": "B16", "binding result": "no binding"}
{"binder": "B17", "binding result": "no binding"}
{"binder": "B18", "binding result": "no binding"}
{"binder": "B19", "binding result": "no binding"}
{"binder": "B20", "binding result": "no binding"}
{"binder": "B21", "binding result": "no binding"}
{"binder": "B22", "binding result": "no binding"}
